Measurements taken from CN114907478A (MABWELL SHANGHAI BIOSCIENCE CO LTD, dated 2022).

T1: hLAG-3-mFc融合蛋白 (human, UniProt P18627 23-450)
T1 construct: range 1-450; no cleavage site is stated; also called hLAG-3-mFc重组蛋白; 人LAG-3-mFc重组蛋白; not shown: mouse Fc
T1 sequence (looked up): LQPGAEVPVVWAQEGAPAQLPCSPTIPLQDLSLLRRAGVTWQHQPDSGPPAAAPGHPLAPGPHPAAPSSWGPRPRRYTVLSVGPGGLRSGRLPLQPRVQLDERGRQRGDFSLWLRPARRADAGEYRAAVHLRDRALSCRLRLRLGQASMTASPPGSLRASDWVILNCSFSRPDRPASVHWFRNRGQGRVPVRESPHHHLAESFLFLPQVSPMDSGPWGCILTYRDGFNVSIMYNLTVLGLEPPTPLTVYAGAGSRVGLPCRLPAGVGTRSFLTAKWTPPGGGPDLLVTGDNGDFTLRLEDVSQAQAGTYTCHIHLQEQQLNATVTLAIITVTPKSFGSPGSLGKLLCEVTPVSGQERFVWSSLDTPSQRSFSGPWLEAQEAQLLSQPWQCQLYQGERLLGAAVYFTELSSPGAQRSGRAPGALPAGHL


Key:
hLAG-3-mFc融合蛋白 [1] = molecular target: T1, hLAG-3-mFc融合蛋白; assay: FACS competition: blocking of hLAG-3-mFc (2 ug/ml) binding to HLA on 293/rhHLA cells
hLAG-3-mFc融合蛋白 [2] = molecular target: T1, hLAG-3-mFc融合蛋白; assay: BLI (ForteBio Octet QKe), antibody captured on AHC probe, hLAG-3-mFc 60 nM in solution, 1:1 fit

Row | Binder | IC50 (hLAG-3-mFc融合蛋白 [1]) | Kd (hLAG-3-mFc融合蛋白 [2])
1 | ch7F1嵌合抗体 (antibody, human IgG4, V domains shown) VH: EVQLVESGPGLVAPSQSLSITCTVSGFSLTDYAVSWIRQPPGKGLEWLGVVWGDGSTNYHSALISRLIITRDNSKRQVFLKLNSLQTDDTATYYCAKGGGGMDYWGQGTSVTVSS VL: DIVLSQSPAILSASPGEKVTVTCRASSSVSYMHWFQQKPGSSPKPWIYATSNLASGVPVRFSGSGSGTSYSLTISRVEAEDAATYYCQHYNTNPPTWTFGGGSKLEIK | 11.5 µg/mL | 5.52 nM
2 | ch7F10嵌合抗体 (antibody, human IgG4, V domains shown) VH: EVKLMESGAELVKPGASVKLSCKVSGVNIKDDYMHWVKQRTEQGLEWIGRIDPEDVETKYDPKFQGKATITSDTSSNTGYLQLSSLTSEDTAVYYCARSFYSNYVNYFDQWGQGTTLTVSS VL: DIVMTQAPKSMSMSVGERVTLSCKASENVGTYVSWFQQKPEQSPKLLIYGASNRYTGVPDRFTGSGSATDFTLTISSVQAEDLADYHCGQSYSYPYTFGGGTKLEIK | 1.21 µg/mL | 0.117 nM
3 | ch4C8嵌合抗体 (antibody, human IgG4, V domains shown) VH: EVQLVESGGGLVKIGGSLKLSCAGSGFTFSNYAMSWVRQTPEKRLEWVATITYGTTYTFYSDNVKGRFTISRDNAKNNLSLQMSHLKSEDTAMYYCTRGEYGSSFAYWGQGTLVTVSA VL: DIVMTQSQKFMSTSVGDRVSITCKASQNVRTAVAWYQQKPGQSPKALIYLASNRHTGVPDRFTGSGSETDFTLTINNVQSEDLADYFCLQHWNYPLTFGGGTKLEIK | 1.28 µg/mL | 0.427 nM
4 | ch3A10嵌合抗体 (antibody, human IgG4, V domains shown) VH: EVQLQQSGAELVRPGASVKLSCTASGFNIKDDYMHWMKQRPEQGLEWIGWIDPENGETEYASKFQGKATITADTYSNTVYLQFSSLTSEDTGVYYCTIFDYWGQGTSLTVSS VL: not shown | 3.33 µg/mL | 0.128 nM
5 | ch7C5嵌合抗体 (antibody, V domains shown) VH: EVQLQQSGAELARPGASVKLSCKASGYTFTSYGISWVKQRTGQGLEWIGEIYPRSDNTYYNGKFKGKATLTADKSSSTAYMELRSLTSEDSAVFFCARRAFYYYGSNYYAMDYWGQGTSVTVSS VL: DVLMTQTPLFLPVSLGDQASISCRSSQSIVHSNGDTYLEWYLRKPGQSPKLLIFKVSNRFSGVPDRFSGSGSGTDFTLKISRVEAEDLGVYYCFQGSHVPWTFGGGTKLEIK | 1.87 µg/mL | 0.365 nM
6 | ch10B4嵌合抗体 (antibody, human IgG4, V domains shown) VH: EVQLQQSGAELARPGASVKLSCKASGYSFTNYGISWMKQRTGQGLEWIGEIYPRGGNTYYNGKFKGKATLTADQSSSTAYMELRSLTSEDSAVYFCARRAFYYFGSNYYAMDYWGQGTSVTVSS VL: DVVMTQTPLFLPVSLGDQASISCRSSQSIVHSNGDTYLEWYLQKPGQSPKLLIYKVSNRFSGVPDRFSGSGSGTDFTLKISRVEAEDLGVYYCFQGSHVPWTFGGGTKLAIK | 2 µg/mL | 0.0884 nM
